Source: patent US20250296960A1, “PEPTIDE COMPOSITIONS AND METHODS OF USE THEREOF” (priority 2022, published 2025)
Like-named read-outs stand apart in the source and are kept apart here. Numbered stars: 1 amine (or outer) side, 2 acyl side, 3 side chain; on linkers, the order of the positions; unused ones are H or OH. Square brackets hold non-standard residues; d marks the D form. Side chains are listed from the residue outwards. Ends that are not written are not given here. * marks the point of attachment. C18 = C18 fatty acid (C16-C22 fatty acids conjugated via γGlu/8-amino-3,6-dioxaoctanoic acid spacers); Biotin = O=C1N[C@H]2[C@H](CS[C@H]2CCCCC(=O)*)N1; γGlu = O=C(O)[C@H](CCC(=O)[*:2])N[*:1]; biotin‑maleimide = B1-MAL; AEEA = NCCOCCOCC(=O)O; Aib = CC(C)(N)C(=O)O; MAL = maleimide

T1: human glucose-dependent insulinotropic polypeptide receptor (GIPR), expressed on CHO-K1 cells (human, UniProt P48546 22-466)
T1 sequence (looked up): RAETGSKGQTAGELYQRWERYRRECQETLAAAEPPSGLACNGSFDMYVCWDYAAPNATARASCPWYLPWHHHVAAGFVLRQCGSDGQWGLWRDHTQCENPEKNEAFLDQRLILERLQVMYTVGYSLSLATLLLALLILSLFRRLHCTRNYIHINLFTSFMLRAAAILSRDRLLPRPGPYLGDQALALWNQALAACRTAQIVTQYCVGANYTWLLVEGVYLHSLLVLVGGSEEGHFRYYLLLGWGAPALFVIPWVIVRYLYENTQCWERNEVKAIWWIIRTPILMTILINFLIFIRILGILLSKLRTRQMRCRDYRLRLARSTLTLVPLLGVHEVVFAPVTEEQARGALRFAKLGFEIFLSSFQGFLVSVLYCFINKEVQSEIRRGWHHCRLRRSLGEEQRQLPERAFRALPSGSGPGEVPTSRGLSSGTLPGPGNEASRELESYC


Experiments:
Experiment in all cases: cell-based or functional assay
[1] = biological target: T2, human GLP-1 receptor (GLP-1R), expressed on CHO-K1 cells (human, UniProt P43220 24-463)
[2] = biological target: T3, human glucagon receptor (GCGR), expressed on CHO-K1 cells (human, UniProt P47871 26-477)
T3 sequence (P47871 26-477): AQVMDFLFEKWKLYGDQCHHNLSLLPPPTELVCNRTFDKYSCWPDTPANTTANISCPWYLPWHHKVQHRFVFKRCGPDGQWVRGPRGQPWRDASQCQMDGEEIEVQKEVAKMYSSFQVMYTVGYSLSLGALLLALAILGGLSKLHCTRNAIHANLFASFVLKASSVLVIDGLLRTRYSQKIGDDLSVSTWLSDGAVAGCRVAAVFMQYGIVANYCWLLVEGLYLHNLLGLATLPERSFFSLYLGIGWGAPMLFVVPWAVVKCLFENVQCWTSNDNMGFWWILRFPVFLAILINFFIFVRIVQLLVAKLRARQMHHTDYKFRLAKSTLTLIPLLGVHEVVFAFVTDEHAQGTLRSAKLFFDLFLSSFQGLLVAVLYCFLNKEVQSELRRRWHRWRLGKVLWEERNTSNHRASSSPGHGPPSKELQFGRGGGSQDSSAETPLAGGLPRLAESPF

[3] = biological target: T1, human glucose-dependent insulinotropic …
[4] = biological target: T2, human GLP-1 receptor (GLP-1R), …; remark: listed apart in the source
[5] = biological target: T3, human glucagon receptor (GCGR), …; remark: listed apart in the source
[6] = biological target: T1, human glucose-dependent insulinotropic …; remark: listed apart in the source

Binder | EC50 (nM), cAMP assay [1] [nM] | EC50 (nM), cAMP assay [2] [nM] | EC50 (nM), cAMP assay [3] [nM] | EC50 (nM), cAMP assay [4] [nM] | EC50 (nM), cAMP assay [5] [nM] | EC50 (nM), cAMP assay [6] [nM]
H[Aib]QGTFTSDYSKYLDYMMARDFVQWLIEGGPSSGAPPPSC([MAL-AEEA-AEEA-γGlu-C18])-NH2 [Peptide No. 5A (peptide 5, A type: lipid at Cys40)] | 0.187 | 9.29 | 140 | 0.0967 | 1.71 | 157
H[Aib]QGTFTSDYSK([AEEA-AEEA-γGlu-C18])YLDYMMARDFVQWLIEGGPSSGAPPPSC(biotin‑maleimide)-NH2 [Peptide No. 5C (peptide 5, C type: lipid at Lys12 and biotin at Cys40)] | 0.0772 | 3.23 | 24.2 |  |  | 
H[Aib]QGTFTSDYSK(Biotin)YLDYMMARDFVQWLIEGGPSSGAPPPSC([MAL-AEEA-AEEA-γGlu-C18])-NH2 [Peptide No. 5B (peptide 5, B type: lipid at Cys40 and biotin at Lys12)] | 0.18 | 15.1 | 97.2 |  |  | 
